According to publication PMC8498191, “Structural and Mechanistic Insights Into Dimethylsulfoxide Formation Through Dimethylsulfide Oxidation” (Frontiers in Microbiology, 2021):

T1: Tmm7211 (Candidatus Pelagibacter sp. HTCC7211, UniProt B6BQB2)
T1 construct: gene tmm; full-length synthesized gene (1335 bp, 444 residues, 52 kDa), N-terminal His tag (pET28a), E. coli BL21(DE3); Ni-NTA and Superdex-200
T1 sequence (B6BQB2 1-444): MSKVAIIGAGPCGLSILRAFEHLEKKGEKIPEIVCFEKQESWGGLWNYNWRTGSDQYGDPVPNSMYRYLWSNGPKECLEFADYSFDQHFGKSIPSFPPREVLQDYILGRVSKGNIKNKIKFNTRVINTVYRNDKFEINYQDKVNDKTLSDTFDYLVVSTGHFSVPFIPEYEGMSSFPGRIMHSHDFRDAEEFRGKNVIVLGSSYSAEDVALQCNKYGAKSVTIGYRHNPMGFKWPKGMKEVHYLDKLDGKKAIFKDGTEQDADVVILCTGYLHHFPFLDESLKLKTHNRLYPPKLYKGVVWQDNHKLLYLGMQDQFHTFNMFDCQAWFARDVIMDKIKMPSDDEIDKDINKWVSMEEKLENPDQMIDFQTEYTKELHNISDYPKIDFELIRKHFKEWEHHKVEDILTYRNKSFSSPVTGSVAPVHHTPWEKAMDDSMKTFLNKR

B1: trimethylamine monooxygenase from Pelagibacter sp. HTCC7211 (Tmm_(7211)) (enzyme, UniProt B6BQB2 1-444, looked up)
chain: MSKVAIIGAGPCGLSILRAFEHLEKKGEKIPEIVCFEKQESWGGLWNYNWRTGSDQYGDPVPNSMYRYLWSNGPKECLEFADYSFDQHFGKSIPSFPPREVLQDYILGRVSKGNIKNKIKFNTRVINTVYRNDKFEINYQDKVNDKTLSDTFDYLVVSTGHFSVPFIPEYEGMSSFPGRIMHSHDFRDAEEFRGKNVIVLGSSYSAEDVALQCNKYGAKSVTIGYRHNPMGFKWPKGMKEVHYLDKLDGKKAIFKDGTEQDADVVILCTGYLHHFPFLDESLKLKTHNRLYPPKLYKGVVWQDNHKLLYLGMQDQFHTFNMFDCQAWFARDVIMDKIKMPSDDEIDKDINKWVSMEEKLENPDQMIDFQTEYTKELHNISDYPKIDFELIRKHFKEWEHHKVEDILTYRNKSFSSPVTGSVAPVHHTPWEKAMDDSMKTFLNKR
notes: trimethylamine monooxygenase (Tmm, EC 1.14.13.148), a bacterial flavin-containing monooxygenase of the SAR11 bacterium Pelagibacter sp; HTCC7211; 1335-bp full-length tmm gene, synthesised; 444 amino acid residues, calculated mass 52 kDa; NADPH (5 mM) was added before crystallisation, and NADP+ and FAD are seen in the structure; Cloned in pET28a; also called WT Tmm_(7211); recombinant Tmm_(7211); …
B2: Tmm7211 (Candidatus Pelagibacter sp. HTCC7211; S203A) (protein)
chain: MSKVAIIGAGPCGLSILRAFEHLEKKGEKIPEIVCFEKQESWGGLWNYNWRTGSDQYGDPVPNSMYRYLWSNGPKECLEFADYSFDQHFGKSIPSFPPREVLQDYILGRVSKGNIKNKIKFNTRVINTVYRNDKFEINYQDKVNDKTLSDTFDYLVVSTGHFSVPFIPEYEGMSSFPGRIMHSHDFRDAEEFRGKNVIVLGSAYSAEDVALQCNKYGAKSVTIGYRHNPMGFKWPKGMKEVHYLDKLDGKKAIFKDGTEQDADVVILCTGYLHHFPFLDESLKLKTHNRLYPPKLYKGVVWQDNHKLLYLGMQDQFHTFNMFDCQAWFARDVIMDKIKMPSDDEIDKDINKWVSMEEKLENPDQMIDFQTEYTKELHNISDYPKIDFELIRKHFKEWEHHKVEDILTYRNKSFSSPVTGSVAPVHHTPWEKAMDDSMKTFLNKR
notes: full-length synthesized gene (1335 bp, 444 residues, 52 kDa), N-terminal His tag (pET28a), E. coli BL21(DE3); Ni-NTA and Superdex-200
B3: Tmm7211 (Candidatus Pelagibacter sp. HTCC7211; D314E) (protein)
chain: MSKVAIIGAGPCGLSILRAFEHLEKKGEKIPEIVCFEKQESWGGLWNYNWRTGSDQYGDPVPNSMYRYLWSNGPKECLEFADYSFDQHFGKSIPSFPPREVLQDYILGRVSKGNIKNKIKFNTRVINTVYRNDKFEINYQDKVNDKTLSDTFDYLVVSTGHFSVPFIPEYEGMSSFPGRIMHSHDFRDAEEFRGKNVIVLGSSYSAEDVALQCNKYGAKSVTIGYRHNPMGFKWPKGMKEVHYLDKLDGKKAIFKDGTEQDADVVILCTGYLHHFPFLDESLKLKTHNRLYPPKLYKGVVWQDNHKLLYLGMQEQFHTFNMFDCQAWFARDVIMDKIKMPSDDEIDKDINKWVSMEEKLENPDQMIDFQTEYTKELHNISDYPKIDFELIRKHFKEWEHHKVEDILTYRNKSFSSPVTGSVAPVHHTPWEKAMDDSMKTFLNKR
notes: as for B2
B4: Tmm7211 (Candidatus Pelagibacter sp. HTCC7211; R409A) (protein)
chain: MSKVAIIGAGPCGLSILRAFEHLEKKGEKIPEIVCFEKQESWGGLWNYNWRTGSDQYGDPVPNSMYRYLWSNGPKECLEFADYSFDQHFGKSIPSFPPREVLQDYILGRVSKGNIKNKIKFNTRVINTVYRNDKFEINYQDKVNDKTLSDTFDYLVVSTGHFSVPFIPEYEGMSSFPGRIMHSHDFRDAEEFRGKNVIVLGSSYSAEDVALQCNKYGAKSVTIGYRHNPMGFKWPKGMKEVHYLDKLDGKKAIFKDGTEQDADVVILCTGYLHHFPFLDESLKLKTHNRLYPPKLYKGVVWQDNHKLLYLGMQDQFHTFNMFDCQAWFARDVIMDKIKMPSDDEIDKDINKWVSMEEKLENPDQMIDFQTEYTKELHNISDYPKIDFELIRKHFKEWEHHKVEDILTYANKSFSSPVTGSVAPVHHTPWEKAMDDSMKTFLNKR
notes: as for B2
B5: Tmm7211 (Candidatus Pelagibacter sp. HTCC7211; N288A) (protein)
chain: MSKVAIIGAGPCGLSILRAFEHLEKKGEKIPEIVCFEKQESWGGLWNYNWRTGSDQYGDPVPNSMYRYLWSNGPKECLEFADYSFDQHFGKSIPSFPPREVLQDYILGRVSKGNIKNKIKFNTRVINTVYRNDKFEINYQDKVNDKTLSDTFDYLVVSTGHFSVPFIPEYEGMSSFPGRIMHSHDFRDAEEFRGKNVIVLGSSYSAEDVALQCNKYGAKSVTIGYRHNPMGFKWPKGMKEVHYLDKLDGKKAIFKDGTEQDADVVILCTGYLHHFPFLDESLKLKTHARLYPPKLYKGVVWQDNHKLLYLGMQDQFHTFNMFDCQAWFARDVIMDKIKMPSDDEIDKDINKWVSMEEKLENPDQMIDFQTEYTKELHNISDYPKIDFELIRKHFKEWEHHKVEDILTYRNKSFSSPVTGSVAPVHHTPWEKAMDDSMKTFLNKR
notes: as for B2
B6: Tmm7211 (Candidatus Pelagibacter sp. HTCC7211; D314A) (protein)
chain: MSKVAIIGAGPCGLSILRAFEHLEKKGEKIPEIVCFEKQESWGGLWNYNWRTGSDQYGDPVPNSMYRYLWSNGPKECLEFADYSFDQHFGKSIPSFPPREVLQDYILGRVSKGNIKNKIKFNTRVINTVYRNDKFEINYQDKVNDKTLSDTFDYLVVSTGHFSVPFIPEYEGMSSFPGRIMHSHDFRDAEEFRGKNVIVLGSSYSAEDVALQCNKYGAKSVTIGYRHNPMGFKWPKGMKEVHYLDKLDGKKAIFKDGTEQDADVVILCTGYLHHFPFLDESLKLKTHNRLYPPKLYKGVVWQDNHKLLYLGMQAQFHTFNMFDCQAWFARDVIMDKIKMPSDDEIDKDINKWVSMEEKLENPDQMIDFQTEYTKELHNISDYPKIDFELIRKHFKEWEHHKVEDILTYRNKSFSSPVTGSVAPVHHTPWEKAMDDSMKTFLNKR
notes: as for B2
B7: Tmm7211 (Candidatus Pelagibacter sp. HTCC7211; R226A) (protein)
chain: MSKVAIIGAGPCGLSILRAFEHLEKKGEKIPEIVCFEKQESWGGLWNYNWRTGSDQYGDPVPNSMYRYLWSNGPKECLEFADYSFDQHFGKSIPSFPPREVLQDYILGRVSKGNIKNKIKFNTRVINTVYRNDKFEINYQDKVNDKTLSDTFDYLVVSTGHFSVPFIPEYEGMSSFPGRIMHSHDFRDAEEFRGKNVIVLGSSYSAEDVALQCNKYGAKSVTIGYAHNPMGFKWPKGMKEVHYLDKLDGKKAIFKDGTEQDADVVILCTGYLHHFPFLDESLKLKTHNRLYPPKLYKGVVWQDNHKLLYLGMQDQFHTFNMFDCQAWFARDVIMDKIKMPSDDEIDKDINKWVSMEEKLENPDQMIDFQTEYTKELHNISDYPKIDFELIRKHFKEWEHHKVEDILTYRNKSFSSPVTGSVAPVHHTPWEKAMDDSMKTFLNKR
notes: as for B2
B8: Tmm7211 (Candidatus Pelagibacter sp. HTCC7211; H227A) (protein)
chain: MSKVAIIGAGPCGLSILRAFEHLEKKGEKIPEIVCFEKQESWGGLWNYNWRTGSDQYGDPVPNSMYRYLWSNGPKECLEFADYSFDQHFGKSIPSFPPREVLQDYILGRVSKGNIKNKIKFNTRVINTVYRNDKFEINYQDKVNDKTLSDTFDYLVVSTGHFSVPFIPEYEGMSSFPGRIMHSHDFRDAEEFRGKNVIVLGSSYSAEDVALQCNKYGAKSVTIGYRANPMGFKWPKGMKEVHYLDKLDGKKAIFKDGTEQDADVVILCTGYLHHFPFLDESLKLKTHNRLYPPKLYKGVVWQDNHKLLYLGMQDQFHTFNMFDCQAWFARDVIMDKIKMPSDDEIDKDINKWVSMEEKLENPDQMIDFQTEYTKELHNISDYPKIDFELIRKHFKEWEHHKVEDILTYRNKSFSSPVTGSVAPVHHTPWEKAMDDSMKTFLNKR
notes: as for B2
B9: Tmm7211 (Candidatus Pelagibacter sp. HTCC7211; N72A) (protein)
chain: MSKVAIIGAGPCGLSILRAFEHLEKKGEKIPEIVCFEKQESWGGLWNYNWRTGSDQYGDPVPNSMYRYLWSAGPKECLEFADYSFDQHFGKSIPSFPPREVLQDYILGRVSKGNIKNKIKFNTRVINTVYRNDKFEINYQDKVNDKTLSDTFDYLVVSTGHFSVPFIPEYEGMSSFPGRIMHSHDFRDAEEFRGKNVIVLGSSYSAEDVALQCNKYGAKSVTIGYRHNPMGFKWPKGMKEVHYLDKLDGKKAIFKDGTEQDADVVILCTGYLHHFPFLDESLKLKTHNRLYPPKLYKGVVWQDNHKLLYLGMQDQFHTFNMFDCQAWFARDVIMDKIKMPSDDEIDKDINKWVSMEEKLENPDQMIDFQTEYTKELHNISDYPKIDFELIRKHFKEWEHHKVEDILTYRNKSFSSPVTGSVAPVHHTPWEKAMDDSMKTFLNKR
notes: as for B2

Assays:
[1] = target: T1, Tmm7211; test: NADPH oxidation at […] nm; assay type: biochemical; details: read-out: Apparent KM; 0.25 mM NADPH, 1 μM enzyme, 10 mM Tris-HCl pH 7.0, 100 mM NaCl
[2] = target: T1, Tmm7211; test: X-ray crystal structure, […] Å; assay type: binding
[3] = substrate: Cn1cc[nH]c1=S; test: purified protein; details: 0.25 mM NADPH, 1 μM enzyme, 10 mM Tris-HCl pH 7.0, 100 mM NaCl
[4] = target: the molecule itself; test: SEC; analytical gel filtration on a calibrated Superose 6 column, 10 mM Tris-HCl (pH 8.0), 100 mM NaCl; apparent mass 95 kDa against 52 kDa calculated for the monomer
[5] = substrate: NC(=O)C1=CN([C@@H]2O[C@H](COP(=O)(O)OP(=O)(O)OC[C@H]3O[C@@H](n4cnc5c(N)ncnc54)[C@H](OP(=O)(O)O)[C@@H]3O)[C@@H](O)[C@H]2O)C=CC1; test: purified protein; assay type: biochemical, Candidatus Pelagibacter sp. HTCC7211; details: 1 mM DMS, 1.5 μM enzyme
[6] = substrate: CN(C)C; test: purified protein; assay type: biochemical, Candidatus Pelagibacter sp. HTCC7211; details: 0.25 mM NADPH, 1 μM enzyme, 10 mM Tris-HCl pH 7.0, 100 mM NaCl; pH 7.0
[7] = substrate: CSC; test: purified protein; assay type: biochemical, Candidatus Pelagibacter sp. HTCC7211; details: 0.25 mM NADPH, 1 μM enzyme, 10 mM Tris-HCl pH 7.0, 100 mM NaCl; pH 7.0

Molecule	Km [5]	kcat [5]	further results
CNC [DMA]			Km [1]: 181 ± 23.7 µM
Cc1cc2nc3c(=O)[nH]c(=O)nc-3n(C[C@H](O)[C@H](O)[C@H](O)COP(=O)(O)OP(=O)(O)OC[C@H]3O[C@@H](n4cnc5c(N)ncnc54)[C@H](O)[C@@H]3O)c2cc1C [FAD]			X-ray crystal structure, 1.8 Å ([2]; FAD bound during expression in E. coli): the NADP^+ and FAD molecules can be clearly observed in the structure
NC(=O)c1ccc[n+]([C@@H]2O[C@H](COP(=O)(O)OP(=O)(O)OC[C@H]3O[C@@H](n4cnc5c(N)ncnc54)[C@H](OP(=O)(O)O)[C@@H]3O)[C@@H](O)[C@H]2O)c1 [NADP^+]			X-ray crystal structure, 1.8 Å ([2]; crystallised with 5 mM NADPH): the NADP^+ and FAD molecules can be clearly observed in the structure
B1	12.8 ± 0.4 µM	0.075 ± 0.005 s⁻¹	Km [3]: 116.2 ± 13.8 µM; kcat [3]: 0.0867 s⁻¹; kcat/Km [3]: 747 M⁻¹ s⁻¹; stoichiometry N [4]: 2; Km [6]: 139.0 ± 10.7 µM; kcat [6]: 0.373 ± 0.0133 s⁻¹; kcat/Km [6]: 2690 M⁻¹ s⁻¹; Km [7]: 250.5 ± 23.0 µM; kcat [7]: 0.075 ± 0.005 s⁻¹; kcat/Km [7]: 300 M⁻¹ s⁻¹
B2	134.8 ± 11.1 µM	0.0167 ± 0.00167 s⁻¹	
B3	9.7 ± 0.5 µM	0.0867 ± 0.00333 s⁻¹	
B4	44.9 ± 5.6 µM	0.045 ± 0.00167 s⁻¹	
B5	61.1 ± 4.0 µM	0.0217 ± 0.00167 s⁻¹	
B6	32.0 ± 0.6 µM	0.035 ± 0.00167 s⁻¹	
B7	101.8 ± 8.6 µM	0.015 ± 0.00167 s⁻¹	
B8	41.2 ± 2.3 µM	0.0417 ± 0.00333 s⁻¹	
B9	34.1 ± 1.0 µM	0.0317 ± 0.00333 s⁻¹	
